Assay [1] addresses T1, cynomolgus monkey FcγRIIIaS extracellular domain, His-tagged (cynomolgus monkey, UniProt Q8SPW2 21-206 at identity 1.00)).
T1 construct: also called cyno FcγRIIIaS; cynoFcγRIIIaS
T1 chain: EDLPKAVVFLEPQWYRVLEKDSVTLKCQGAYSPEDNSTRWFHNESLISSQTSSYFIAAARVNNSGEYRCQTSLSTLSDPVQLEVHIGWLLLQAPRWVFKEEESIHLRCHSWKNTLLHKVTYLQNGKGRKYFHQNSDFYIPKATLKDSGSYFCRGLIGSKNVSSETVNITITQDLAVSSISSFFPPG
Description: SPR; KD of SG1 / KD of variant. In general terms: Surface plasmon resonance follows binding to a sensor surface in real time, without labels.

For assay [2], the target named is T2, cynomolgus monkey FcγRIIa1 extracellular domain, C-terminal His-tag (cynomolgus monkey).
T2 construct: also called cyno FcγRIIa1; cynoFcgRIIa1
T2 chain: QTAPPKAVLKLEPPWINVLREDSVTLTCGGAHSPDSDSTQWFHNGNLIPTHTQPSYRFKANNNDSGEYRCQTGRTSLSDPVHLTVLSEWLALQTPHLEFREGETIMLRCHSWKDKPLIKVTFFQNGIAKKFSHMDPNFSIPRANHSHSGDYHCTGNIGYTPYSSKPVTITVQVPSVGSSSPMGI
Description: SPR (Biacore); KD of SG1 / KD of variant. As to the method: (§1) The kinetic analysis of interactions between these antibodies and FcγR was carried out using BIACORE® T200 or BIACORE® 4000 (GE Healthcare). HBS-EP+ (GE Healthcare) was used as the running buffer, and the measurement temperature was set to 25° C. A chip produced by immobilizing Protein A. Protein A/G or mouse anti-human IgG kappa light chain (BD Biosciences) onto a Series S Sensor Chip CM4 or CM5 (GE Healthcare) by the amine-coupling method was used. […] After the measurement, the antibody captured on the chip was washed off by allowing reaction with 10 mM glycine-HCl, pH1.5 and 25 mM NaOH so that the chip was regenerated and used repeatedly. The sensorgrams obtained as measurement results were analyzed by the 1:1 Langmuir binding model using the BIACORE® Evaluation Software to calculate the binding rate constant ka (L/mol/s) and dissociation rate constant kd (l/s), and the dissociation constant KD (mol/L) was calculated from these values. […] Regarding such interactions, KD values were calculated using the following 1:1 binding model described in BIACORE® T100 Software Handbook BR1006-48 Edition AE.
(§2) The behavior of interacting molecules according to the 1:1 binding model on BIACORE® can be described by Equation 1: Req=C·R max/(KD+C)+RI, wherein, Req is a plot of steady-state binding levels to analyte concentration. C is concentration, RI is bulk refractive index contribution in the sample, and Rmax is analyte binding capacity of the surface. When this equation is rearranged, KD can be expressed as Equation 2: KD=C·Rmax/(Req−RI)−C. KD can be calculated by substituting the values of Rmax, RI, and C into Equation 1 or Equation 2. From the current measurement conditions, RI=0, C=2 μmol/L can be used.

The target of assay [3] is T3, cynomolgus monkey FcγRIIa2 extracellular domain, C-terminal His-tag (cynomolgus monkey).
T3 construct: also called cyno FcγRIIa2; cynoFcgRIIa2
T3 chain: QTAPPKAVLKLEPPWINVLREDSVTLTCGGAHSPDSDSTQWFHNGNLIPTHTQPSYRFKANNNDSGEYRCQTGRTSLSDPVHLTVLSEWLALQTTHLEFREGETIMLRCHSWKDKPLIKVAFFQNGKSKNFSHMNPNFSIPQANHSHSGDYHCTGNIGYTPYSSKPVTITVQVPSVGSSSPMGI
Put plainly: SPR (Biacore); KD of SG1 / KD of variant. As to the method:
as §1, §2

For assay [4], the target named is T4, cynomolgus monkey FcγRIIa3 extracellular domain, C-terminal His-tag (cynomolgus monkey).
T4 construct: also called cyno FcγRIIa3; cynoFcgRIIa3
T4 chain: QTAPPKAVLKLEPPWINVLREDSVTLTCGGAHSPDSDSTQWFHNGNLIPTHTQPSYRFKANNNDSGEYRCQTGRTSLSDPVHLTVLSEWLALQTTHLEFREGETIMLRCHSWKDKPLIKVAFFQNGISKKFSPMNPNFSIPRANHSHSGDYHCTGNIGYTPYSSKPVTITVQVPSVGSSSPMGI
Description: SPR (Biacore); KD of SG1 / KD of variant. As to the method:
as §1, §2

Assay [5] addresses T5, cynomolgus monkey FcγRIIb extracellular domain, C-terminal His-tag (cynomolgus monkey).
T5 construct: also called cyno FcγRIIb; cynoFcγRIIb
T5 chain: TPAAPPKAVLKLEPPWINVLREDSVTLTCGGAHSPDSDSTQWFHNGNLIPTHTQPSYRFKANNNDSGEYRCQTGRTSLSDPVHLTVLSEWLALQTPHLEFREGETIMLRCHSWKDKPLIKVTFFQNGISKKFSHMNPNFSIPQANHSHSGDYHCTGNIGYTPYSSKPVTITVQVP
Description: SPR (Biacore); KD of SG1 / KD of variant. As to the method:
as §1, §2

For assay [6], the target named is T6, cynomolgus monkey FcγRIIIaS extracellular domain, C-terminal His-tag (cynomolgus monkey, UniProt Q8SPW2 21-206 at identity 1.00)).
T6 construct: also called cyno FcγRIIIaS; cynoFcγRIIIaS
T6 chain: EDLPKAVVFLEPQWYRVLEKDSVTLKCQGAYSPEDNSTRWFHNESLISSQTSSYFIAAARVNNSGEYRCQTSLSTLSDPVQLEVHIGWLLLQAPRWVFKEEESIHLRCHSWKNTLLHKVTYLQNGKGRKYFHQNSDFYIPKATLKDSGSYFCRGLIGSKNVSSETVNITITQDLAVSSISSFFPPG
Put plainly: SPR (Biacore); KD of SG1 / KD of variant. Here is the method: as §1, §2

For assay [7], the target named is T7, human FcγRIIaR extracellular domain, C-terminal His-tag (human, UniProt P12318 34-217).
T7 construct: also called human FcγRIIa (type R); FcgRIIaR
T7 chain: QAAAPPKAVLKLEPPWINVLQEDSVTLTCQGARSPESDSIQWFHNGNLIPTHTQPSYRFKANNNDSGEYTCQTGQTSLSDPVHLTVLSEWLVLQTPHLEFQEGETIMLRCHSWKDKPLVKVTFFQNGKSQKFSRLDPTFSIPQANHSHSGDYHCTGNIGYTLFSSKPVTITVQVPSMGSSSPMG
Description: SPR (Biacore); KD of SG1 / KD of variant. Here is the method: as §1, §2

Assay [8] deals with T8, human FcγRIIb extracellular domain, C-terminal His-tag (human, UniProt P31994 43-217).
T8 construct: also called human FcgRIIb; FcgRIIb
T8 sequence: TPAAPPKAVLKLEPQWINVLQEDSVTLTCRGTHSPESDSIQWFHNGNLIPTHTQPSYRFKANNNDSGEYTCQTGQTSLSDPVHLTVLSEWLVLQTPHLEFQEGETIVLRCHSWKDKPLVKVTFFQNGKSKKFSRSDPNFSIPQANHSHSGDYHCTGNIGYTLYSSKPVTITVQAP
Put plainly: SPR (Biacore); KD of SG1 / KD of variant. Here is the method:
as §1, §2

In assay [9] the target is T9, human FcγRIIIaV extracellular domain, C-terminal His-tag (human, UniProt P08637 17-208).
T9 construct: also called human FcgRIIIaV; FcgRIIIaV
T9 sequence (P08637 17-208 F176V): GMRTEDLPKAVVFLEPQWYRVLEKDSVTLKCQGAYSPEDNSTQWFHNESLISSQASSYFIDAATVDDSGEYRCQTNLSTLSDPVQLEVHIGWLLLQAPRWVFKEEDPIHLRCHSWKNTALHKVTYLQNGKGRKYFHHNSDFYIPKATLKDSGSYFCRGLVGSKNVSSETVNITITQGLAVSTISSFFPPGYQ
Description: SPR (Biacore); KD of SG1 / KD of variant. Here is the method: as §1, §2
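Also: relative to parent M103205H795-SG1 carrying the SG1 human heavy chain constant region.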

B1: M103205H795-MY072/M103202L889-SK1 (antibody, human IgG1, kappa)
heavy: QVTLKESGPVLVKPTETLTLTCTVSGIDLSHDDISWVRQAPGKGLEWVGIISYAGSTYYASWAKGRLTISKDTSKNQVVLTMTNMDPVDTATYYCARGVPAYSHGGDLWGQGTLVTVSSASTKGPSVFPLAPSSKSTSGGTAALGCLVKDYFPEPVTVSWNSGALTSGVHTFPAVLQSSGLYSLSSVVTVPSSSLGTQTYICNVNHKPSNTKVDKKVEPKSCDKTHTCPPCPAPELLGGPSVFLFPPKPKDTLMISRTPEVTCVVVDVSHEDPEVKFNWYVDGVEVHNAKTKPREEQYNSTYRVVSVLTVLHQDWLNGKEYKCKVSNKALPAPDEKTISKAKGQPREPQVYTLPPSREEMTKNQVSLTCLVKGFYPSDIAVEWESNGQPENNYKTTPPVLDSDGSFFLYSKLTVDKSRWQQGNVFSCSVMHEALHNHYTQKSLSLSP
light: DIVMTQSPATLSLSPGERATLSCTSSQSVYHANWLSWFQQKPGQPPKLLIYWASTLAYGVPSRFSGSGSGTDFTLTISSLQPEDAATYYCAGGYGGGRYAFGQGTKVEIKRTVAAPSVFIFPPSDEQLKSGTASVVCLLNNFYPREAKVQWKVDNALQSGNSQESVTEQDSKDSTYSLSSTLTLSKADYEKHKVYACEVTHQGLSSPVTKSFNRGEC
notes: Substitution put into M103205H795-SG1
B1: in assay [1], the “KD fold (SG1 = 1)” value is 6.79 fold.

B2: MS_M103205H795-SG1/M103202L889-SK1 (antibody, human IgG1, kappa)
heavy: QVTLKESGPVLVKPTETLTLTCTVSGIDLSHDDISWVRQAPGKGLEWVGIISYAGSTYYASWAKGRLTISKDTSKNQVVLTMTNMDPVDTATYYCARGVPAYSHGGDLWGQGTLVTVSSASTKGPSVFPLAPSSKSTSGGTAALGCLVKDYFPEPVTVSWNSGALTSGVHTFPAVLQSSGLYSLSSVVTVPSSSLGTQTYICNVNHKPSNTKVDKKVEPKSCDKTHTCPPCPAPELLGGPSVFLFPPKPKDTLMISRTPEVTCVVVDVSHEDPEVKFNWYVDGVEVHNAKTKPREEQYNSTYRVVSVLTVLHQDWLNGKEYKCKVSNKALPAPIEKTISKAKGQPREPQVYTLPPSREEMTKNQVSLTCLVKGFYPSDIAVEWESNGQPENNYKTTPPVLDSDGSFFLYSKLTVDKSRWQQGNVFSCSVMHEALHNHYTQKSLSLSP
light: DIVMTQSPATLSLSPGERATLSCTSSQSVYHANWLSWFQQKPGQPPKLLIYWASTLAYGVPSRFSGSGSGTDFTLTISSLQPEDAATYYCAGGYGGGRYAFGQGTKVEIKRTVAAPSVFIFPPSDEQLKSGTASVVCLLNNFYPREAKVQWKVDNALQSGNSQESVTEQDSKDSTYSLSSTLTLSKADYEKHKVYACEVTHQGLSSPVTKSFNRGEC
notes: Parent of the Fc variants; also called MS1032LO06-SG1
Take B2: the “KD fold (SG1 = 1)” value in assay [2], in [3], in assay [4], in assay [5], in [6] and in [7] was 1 fold in each case. For the same molecule, the “KD fold (SG1 = 1)” value in assay [8] and in assay [9] was 1 fold each time.

B3: M103205H795-MY001/M103202L889-SK1 (antibody, human IgG1, kappa)
heavy: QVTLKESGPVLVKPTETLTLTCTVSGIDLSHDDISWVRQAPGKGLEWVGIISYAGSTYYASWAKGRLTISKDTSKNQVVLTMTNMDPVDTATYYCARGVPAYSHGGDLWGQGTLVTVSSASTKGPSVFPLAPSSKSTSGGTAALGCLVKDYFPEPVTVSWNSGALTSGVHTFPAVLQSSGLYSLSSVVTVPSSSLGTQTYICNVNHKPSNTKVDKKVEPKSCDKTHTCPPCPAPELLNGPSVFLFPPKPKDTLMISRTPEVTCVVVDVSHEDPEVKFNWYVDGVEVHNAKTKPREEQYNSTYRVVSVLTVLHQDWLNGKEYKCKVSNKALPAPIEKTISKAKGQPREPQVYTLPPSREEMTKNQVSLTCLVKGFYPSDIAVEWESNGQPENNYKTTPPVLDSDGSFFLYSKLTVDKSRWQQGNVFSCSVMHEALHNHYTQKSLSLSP
light: DIVMTQSPATLSLSPGERATLSCTSSQSVYHANWLSWFQQKPGQPPKLLIYWASTLAYGVPSRFSGSGSGTDFTLTISSLQPEDAATYYCAGGYGGGRYAFGQGTKVEIKRTVAAPSVFIFPPSDEQLKSGTASVVCLLNNFYPREAKVQWKVDNALQSGNSQESVTEQDSKDSTYSLSSTLTLSKADYEKHKVYACEVTHQGLSSPVTKSFNRGEC
notes: Substitutions introduced into M103205H795-SG1; expressed with M103202L889-SK1 as light chain
For the molecule B3, the “KD fold (SG1 = 1)” value in [2] came to 1.1 fold; in assay [3] it was 1.4 fold; in assay [4] it was 1.1 fold; in assay [5] it was 1 fold; in assay [6], 0.05 fold; in assay [7], 0.1 fold. For the same molecule, the “KD fold (SG1 = 1)” value came out at 0.6 fold in assay [8] and 0.04 fold in assay [9].

B4: M103205H795-MY047/M103202L889-SK1 (antibody, human IgG1, kappa)
heavy: not shown
light: DIVMTQSPATLSLSPGERATLSCTSSQSVYHANWLSWFQQKPGQPPKLLIYWASTLAYGVPSRFSGSGSGTDFTLTISSLQPEDAATYYCAGGYGGGRYAFGQGTKVEIKRTVAAPSVFIFPPSDEQLKSGTASVVCLLNNFYPREAKVQWKVDNALQSGNSQESVTEQDSKDSTYSLSSTLTLSKADYEKHKVYACEVTHQGLSSPVTKSFNRGEC
notes: as for B3
For the molecule B4, the “KD fold (SG1 = 1)” value in assay [2] was 0.7 fold; in [3], 1.5 fold; in [4], 0.7 fold; in assay [5], 0.7 fold; in assay [6], 0.05 fold; in assay [7] it was 0.5 fold. In addition, in assay [8], the “KD fold (SG1 = 1)” value was 1.2 fold.

B5: M103205H795-MY196/M103202L889-SK1 (antibody, human IgG1, kappa)
heavy: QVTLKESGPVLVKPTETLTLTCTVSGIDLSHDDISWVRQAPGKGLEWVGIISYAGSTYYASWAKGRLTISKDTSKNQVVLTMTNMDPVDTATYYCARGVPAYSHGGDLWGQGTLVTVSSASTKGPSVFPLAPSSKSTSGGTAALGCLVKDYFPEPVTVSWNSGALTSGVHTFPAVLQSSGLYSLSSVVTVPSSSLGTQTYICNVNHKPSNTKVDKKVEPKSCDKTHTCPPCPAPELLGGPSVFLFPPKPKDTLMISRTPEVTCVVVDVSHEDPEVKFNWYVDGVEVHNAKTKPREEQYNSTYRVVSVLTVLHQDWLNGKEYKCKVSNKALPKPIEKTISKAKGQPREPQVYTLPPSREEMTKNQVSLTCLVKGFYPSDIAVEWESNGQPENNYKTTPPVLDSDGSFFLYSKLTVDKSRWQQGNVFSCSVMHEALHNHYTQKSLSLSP
light: DIVMTQSPATLSLSPGERATLSCTSSQSVYHANWLSWFQQKPGQPPKLLIYWASTLAYGVPSRFSGSGSGTDFTLTISSLQPEDAATYYCAGGYGGGRYAFGQGTKVEIKRTVAAPSVFIFPPSDEQLKSGTASVVCLLNNFYPREAKVQWKVDNALQSGNSQESVTEQDSKDSTYSLSSTLTLSKADYEKHKVYACEVTHQGLSSPVTKSFNRGEC
notes: as for B1
With B5, the “KD fold (SG1 = 1)” value in assay [1] amounted to 0.6 fold.

B6: M103205H795-MY048/M103202L889-SK1 (antibody, human IgG1, kappa)
heavy: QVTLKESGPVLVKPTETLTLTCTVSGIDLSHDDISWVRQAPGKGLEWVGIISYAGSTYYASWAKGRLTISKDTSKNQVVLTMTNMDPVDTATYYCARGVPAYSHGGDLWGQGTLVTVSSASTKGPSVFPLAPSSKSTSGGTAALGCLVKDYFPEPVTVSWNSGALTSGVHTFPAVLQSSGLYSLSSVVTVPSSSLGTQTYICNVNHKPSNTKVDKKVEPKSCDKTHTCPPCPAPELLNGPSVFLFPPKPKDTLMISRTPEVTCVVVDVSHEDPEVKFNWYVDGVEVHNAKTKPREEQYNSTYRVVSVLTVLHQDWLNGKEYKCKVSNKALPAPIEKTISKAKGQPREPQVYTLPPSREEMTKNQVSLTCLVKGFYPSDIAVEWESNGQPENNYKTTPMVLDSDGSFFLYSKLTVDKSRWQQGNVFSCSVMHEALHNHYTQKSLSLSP
light: DIVMTQSPATLSLSPGERATLSCTSSQSVYHANWLSWFQQKPGQPPKLLIYWASTLAYGVPSRFSGSGSGTDFTLTISSLQPEDAATYYCAGGYGGGRYAFGQGTKVEIKRTVAAPSVFIFPPSDEQLKSGTASVVCLLNNFYPREAKVQWKVDNALQSGNSQESVTEQDSKDSTYSLSSTLTLSKADYEKHKVYACEVTHQGLSSPVTKSFNRGEC
notes: as for B3
For B6, the “KD fold (SG1 = 1)” value in assay [2] was 2.3 fold; in assay [3] it was 3 fold; in assay [4], 2.4 fold; in assay [5], 2 fold; in assay [6] it was 0.07 fold; in assay [7] it was 0.4 fold. Also, the “KD fold (SG1 = 1)” value in [8] worked out at 1.4 fold; in [9], 0.07 fold.

B7: M103205H795-MY073/M103202L889-SK1 (antibody, human IgG1, kappa)
heavy: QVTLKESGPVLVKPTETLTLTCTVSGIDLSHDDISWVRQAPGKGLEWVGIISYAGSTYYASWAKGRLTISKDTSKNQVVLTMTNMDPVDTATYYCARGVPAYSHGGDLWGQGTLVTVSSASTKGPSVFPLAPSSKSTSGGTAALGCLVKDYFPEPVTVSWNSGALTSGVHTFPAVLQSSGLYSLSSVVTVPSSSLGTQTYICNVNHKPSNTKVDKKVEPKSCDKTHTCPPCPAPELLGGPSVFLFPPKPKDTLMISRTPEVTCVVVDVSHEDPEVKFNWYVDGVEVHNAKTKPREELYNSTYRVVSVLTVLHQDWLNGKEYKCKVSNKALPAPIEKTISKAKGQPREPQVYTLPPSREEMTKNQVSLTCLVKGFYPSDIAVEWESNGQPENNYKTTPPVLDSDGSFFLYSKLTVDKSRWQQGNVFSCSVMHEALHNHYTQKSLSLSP
light: DIVMTQSPATLSLSPGERATLSCTSSQSVYHANWLSWFQQKPGQPPKLLIYWASTLAYGVPSRFSGSGSGTDFTLTISSLQPEDAATYYCAGGYGGGRYAFGQGTKVEIKRTVAAPSVFIFPPSDEQLKSGTASVVCLLNNFYPREAKVQWKVDNALQSGNSQESVTEQDSKDSTYSLSSTLTLSKADYEKHKVYACEVTHQGLSSPVTKSFNRGEC
notes: as for B1
Regarding B7, in assay [1], the “KD fold (SG1 = 1)” value was 2.12 fold.

B8: M103205H795-MY124/M103202L889-SK1 (antibody, human IgG1, kappa)
heavy: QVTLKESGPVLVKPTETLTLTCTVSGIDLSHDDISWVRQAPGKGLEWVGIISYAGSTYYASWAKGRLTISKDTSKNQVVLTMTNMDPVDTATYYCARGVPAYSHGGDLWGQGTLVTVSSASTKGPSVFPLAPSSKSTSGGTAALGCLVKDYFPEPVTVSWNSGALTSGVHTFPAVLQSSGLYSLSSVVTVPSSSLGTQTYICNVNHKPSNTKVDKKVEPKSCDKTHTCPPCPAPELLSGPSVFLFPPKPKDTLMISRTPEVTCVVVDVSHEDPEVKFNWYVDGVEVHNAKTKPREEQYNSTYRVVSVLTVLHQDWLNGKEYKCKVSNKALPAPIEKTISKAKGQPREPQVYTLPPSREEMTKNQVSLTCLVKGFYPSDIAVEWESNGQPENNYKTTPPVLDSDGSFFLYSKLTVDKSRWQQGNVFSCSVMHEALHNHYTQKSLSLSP
light: DIVMTQSPATLSLSPGERATLSCTSSQSVYHANWLSWFQQKPGQPPKLLIYWASTLAYGVPSRFSGSGSGTDFTLTISSLQPEDAATYYCAGGYGGGRYAFGQGTKVEIKRTVAAPSVFIFPPSDEQLKSGTASVVCLLNNFYPREAKVQWKVDNALQSGNSQESVTEQDSKDSTYSLSSTLTLSKADYEKHKVYACEVTHQGLSSPVTKSFNRGEC
notes: as for B1
Consider B8, for which, in assay [1], the “KD fold (SG1 = 1)” value was determined as 0.28 fold.

B9: M103205H795-MY049/M103202L889-SK1 (antibody, human IgG1, kappa)
heavy: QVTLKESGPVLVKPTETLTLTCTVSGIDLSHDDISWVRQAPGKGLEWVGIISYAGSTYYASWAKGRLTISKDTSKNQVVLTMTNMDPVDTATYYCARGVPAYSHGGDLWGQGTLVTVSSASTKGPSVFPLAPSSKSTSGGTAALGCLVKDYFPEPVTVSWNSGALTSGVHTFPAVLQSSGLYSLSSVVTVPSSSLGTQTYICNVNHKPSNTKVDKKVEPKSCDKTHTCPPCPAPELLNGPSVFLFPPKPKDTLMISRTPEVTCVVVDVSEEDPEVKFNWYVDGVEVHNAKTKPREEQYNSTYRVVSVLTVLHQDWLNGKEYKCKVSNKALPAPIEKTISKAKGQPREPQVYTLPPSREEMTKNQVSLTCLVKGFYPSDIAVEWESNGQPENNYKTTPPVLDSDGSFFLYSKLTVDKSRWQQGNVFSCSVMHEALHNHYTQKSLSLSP
light: DIVMTQSPATLSLSPGERATLSCTSSQSVYHANWLSWFQQKPGQPPKLLIYWASTLAYGVPSRFSGSGSGTDFTLTISSLQPEDAATYYCAGGYGGGRYAFGQGTKVEIKRTVAAPSVFIFPPSDEQLKSGTASVVCLLNNFYPREAKVQWKVDNALQSGNSQESVTEQDSKDSTYSLSSTLTLSKADYEKHKVYACEVTHQGLSSPVTKSFNRGEC
notes: as for B3
Regarding B9, the “KD fold (SG1 = 1)” value in assay [2] was determined as 1.2 fold; in [3], 2.2 fold; in [4], 2.6 fold; in [5], 2.1 fold; in assay [6] it was 0.08 fold; in [7], 0.1 fold. For the same molecule, the “KD fold (SG1 = 1)” value in [8] was 3.1 fold; in assay [9], 0.1 fold.

These data come from patent US20200317768A1 (published 2020).
